Test results: patent US11925667B2, “Engineered therapeutic probiotic system and method” (priority 2018, dated 2024)

Tested on: C=CC/C(=N/OS(=O)(=O)O)S[C@@H]1O[C@H](CO)[C@@H](O)[C@H](O)[C@H]1O
Assay: Myrosinase activity assay (glucose release from sinigrin hydrolysis), TGG1
Type: biochemical, Arabidopsis thaliana
Method: Screening for improved β-thioglucosidase. The activity and stability of myrosinase, a β-thioglucosidase that hydrolyzes glucosinolate to sulforaphane, varies at differing pH and temperature; in a preferred embodiment the selected enzyme needs to function under physiological colorectal conditions. The healthy colon pH averages 6.6, while it is 7.0 and 6.7 in patients with adenoma and carcinoma, respectively. In addition, the temperature of the human intestinal tract ranges from 36° C. to 40° C. depending on the individual's metabolic state. In the illustrative example five plant-derived myrosinase orthologues with minimal glycosylation sites and the absence of the co-factor-binding sites using the BLAST search and the Enzyme Function Initiative-Enzyme Similarity Tool (EFI-EST), are compared to the well-characterized myrosinases from Brevicoryne brassicae (BMY1) and Arabidopsis thaliana (TGG1) (FIG. 2a and FIG. 7).
Gene cloning, protein expression and purification. Myrosinase genes are optimized for E. coli expression and cloned into the pET28b expression vector. The plasmids are transformed into E. coli BL21 (DE3) cultured in lysogeny broth (LB) (BD, Le Pont de Claix, France) at 37° C., 225 rpm to OD600 0.6 followed by 0.5 mM isopropyl β-D-1-thiogalactopyranoside (IPTG) induction at 16° C., 180 rpm for 16 hours. Cells are harvested, resuspended in lysis buffer (50 mM Tris-Cl, 300 mM NaCl, 10% glycerol, 1 mM dithiothreitol [DTT], pH 8.0) and lysed using Emulsiflex C-3 (Avestin). Expressed myrosinases are purified by IMAC Ni-NTA purification followed by Hi-Load Superdex 200 size exclusion column chromatography (GE, Uppsala, Sweden). The purified protein is concentrated and stored at −80° C. Pilot scale protein purification and enzymatic assay is conducted.
Myrosinase screening assay. The enzymatic reaction is measured for the release of glucose resulting from sinigrin hydrolysis. The reaction is conducted in sodium phosphate-buffered solution supplied in the Amplex® Red Glucose/Glucose Oxidase Assay Kit (Thermo Fisher Scientific, Geel, Belgium). The reaction buffer is prepared at different pH values (6.0, 6.5, 7.4 and 8.0) and at different reaction temperatures (34° C., 37° C., and 40° C.). The reaction is prepared using 0.1 μM purified myrosinase added to 1× Amplex® Red Glucose Assay reaction mixture and was kick-started with the corresponding concentration of sinigrin. The reaction can be measured at 560 nm absorbance and fluorescence (λex=540 nm, λem=590 nm) using a Synergy H1 Multi-Mode microtiter plate reader (BioTek®, Winooski, USA). The reaction initial velocity (VO) is determined and fitted into a Michaelis-Menten curve. Vmax and KM are determined by fitting into the Michaelis-Menten equation (Eq. 1) using GraphPad Prism Software. ^v=Vmax*[Sinigrin]/(KM+[Sinigrin]) (Eq.1)
Table S1|Myrosinase activity assay screening under various pH and temperature conditions (n=3 independent experiments, each measurement performed in triplicates; mean[…].).

Arabidopsis thaliana myrosinase TGG1 (Arabidopsis thaliana)
Km (other: pH 6.0, 37° C., pH 6.0, 37.0 °C): 361 ± 11 µM
Km (other: pH 6.5, 37° C., pH 6.5, 37.0 °C): 198 ± 20 µM
Km (other: pH 7.4, 34° C., pH 7.4, 34.0 °C): 78 ± 8 µM
Km (other: pH 7.4, 37° C., pH 7.4, 37.0 °C): 71 ± 3 µM
Km (other: pH 7.4, 40° C., pH 7.4, 40.0 °C): 88 ± 9 µM
Km (other: pH 8.0, 37° C., pH 8.0, 37.0 °C): 137 ± 69 µM
